# Data from patent publication US6218168A, “Process for preparing O-acetylserine, L-cysteine and L-cysteine-related products” (Consortium fur elektrochemische Inudstrie GmbH, priority 1995, dated 2001).
# B1: cysEXI: double mutant Thr167->Ala167, Gly245->Ser245 (protein, UniProt P0A9D4 1-273, looked up, variant T167A G245S)
# Serine acetyltransferase: MSCEELEIVWNNIKAEARTLADCEPMLASFYHATLLKHENLGSALSYMLANKLSSPIMPAIAIREVVEEAYAADPEMIASAACDIQAVRTRDPAVDKYSTPLLYLKGFHALQAYRIGHWLWNQGRRALAIFLQNQVSVTFQVDIHPAAKIGRGIMLDHATGIVVGEAAVIENDVSILQSVTLGGTGKSGGDRHPKIREGVMIGAGAKILGNIEVGRGAKIGAGSVVLQPVPPHTTAAGVPARIVSKPDSDKPSMDMDQHFNGINHTFEYGDGI
# Experiments:
# serine acetyltransferase = assay: Serine acetyltransferase enzyme activity test with and without L-cysteine (inhibitor constant Ki, specific activity); type: biochemical, E. coli; conditions: for Ki: inhibitor L-cysteine
# Source text: Any method which enables the activity of the serine acetyltransferase to be determined in the presence of cysteine can be used for determining the cysteine sensitivity of this enzyme. For example, the serine acetyltransferase activity can be determined using the method described by Kredich and Tomkins, J. Biol. Chem. 241: 4955-4965 (1966). In this test, the enzyme test mixture contains the substrate, L-serine, and the cofactor, acetyl-coenzyme A. The reaction is started by adding enzyme and monitored, in a spectro photometer, by observing the decrease in absorption at 232 nm which is elicited by the cleavage of the thioester bond in the acetyl-coenzyme A.
# The above-described enzyme test is suitable for determining the cysteine sensitivity of any serine acetyltransferase enzyme, including the enzymes which have a modified carboxyl terminus. Inhibition of the serine acetyltransferase activity is tested in the presence of differing concentrations of L-cysteine in the reaction mixture. The catalytic activity of the different serine acetyltransferase enzymes is determined in the presence and absence of L-cysteine, and the inhibitor constant, Ki, is ascertained from this (Kredich and Tomkins, J. Biol. Chem., 241, 4955-4965 (1966)).
# In order to investigate the biochemical basis of the cysteine secretion of the revertants, the activity of the serine acetyltransferase was determined in vitro, and the ability of cysteine to inhibit the enzyme was measured. For the determination, use was made of S30 extracts (cell homogenates centrifuged at 30,000 g and 4° C. for 20 minutes) of the selected revertants, the starting strains and the comparison strain, E. coli W3110 (ATTC 27325).
# The biochemical parameters such as enzyme activity and inhibitor constant, Ki, were determined in an analogous manner to that described in Example 1.
# The plasmids resulting from this cloning were designated pACYC184/cysE-Del in accordance with the extent of their deletion (cf. FIG. 9 for the plasmid map). Determination of the enzymic activity and the inhibitor constant, Ki, and also the cross-feeding test, were carried out in analogy with the description in Example 1. DNA sequence analysis was used to confirm that the deletions had been correctly introduced.
# Determination of the enzymic activity and of the inhibitor constant Ki, and also the cross-feeding test, were carried out in analogy with the description in Example 1.
# production strain JM15 = assay: Cysteine production in 1 L fermenter, JM15 with plasmid-encoded cysE alleles; type: cell-based, E. coli; conditions: 48 h, JM15 transformed with plasmid
# Procedure: Influence of different, plasmid-encoded cysE alleles on the production of L-cysteine or products derived from L-cysteine in a 1 L fermenter using the host strain JM15 20 mL of LB medium (1% tryptone, 0.5% yeast extract, 0.5% NaCl) contained in a 100 mL Erlenmeyer flask were inoculated with a single colony of the production strain JM15 (CGSC#5042) which had been transformed with the respective cysE plasmid.
# After having been incubated for 7 hours in a bacterial shaker (30° C., 150 rpm), the respective preliminary cultures were transferred to 100 mL of SM1 medium. The SM1 medium contained 5 g/L glucose, 5 mg/L vitamin B1, 3 g/l KH2 PO4, 12 g/L K2 HPO4, 0.3 g/L MgSO4×7 H2 O, 0.1 g/L NaCl, 5 g/L (NH4)2 SO4, 14.7 mg/L CaCl2×2 H2 O, 2 mg/L FeSO4×2 H2 O, 1 g/L Na3 citrate×2 H2 O, 1 ml/L trace element solution and 25 mg/L tetracycline. The trace element solution was composed of 0.15 g/L Na2 MoO4×2 H2 O, 2.5 g/L H3 BO3, 0.7 g/L CoCl2×6 H2 O, 0.25 g/L CuSO4×5 H2 O, 1.6 g/L MnCl2×4 H2 O and 0.3 g/L ZnSO4×7 H2 O. The cultures were shaken in 1 L Erlenmeyer flasks at 30° C. and at 150 rpm for 17 h. After this incubation, the OD600 was between 4 and 5. The subsequent fermentation was carried out in Braun-Melsungen BIOSTAT M research fermenters. A culturing vessel having a total volume of 2 L was used.
# The fermentation medium contained 15 g/L glucose, 5 g/L NaCl, 0.3 g/L MgSO4×7 H2 O, 15 mg/L CaCl2×2 H2 O, 75 mg/L FeSO4×7 H2 O, 1 g/L Na3 citrate×2 H2 O, 1.5 g/L KH2 PO4, 1 mL of trace element solution (see above), 5 mg/L vitamin B1, 2.5 g/L yeast extract (Difco), 2.5 g/L tryptone (Difco) and 25 mg/L tetracycline.
# The glucose concentration in the fermenter was initially adjusted to a value of 15 g/L by pumping in a 700 g/L (w/v) (sterilized) glucose solution, and the pH was adjusted to 7.0 by pumping in a 25% NH4 OH solution. After an OD600 of 10 had been reached, 300 mg per hour were supplied from a sterile 100 g/L (w/v) stock solution of thiosulfate. 100 mL of preliminary culture were pumped into the fermenter vessel for the inoculation. The starting volume was approximately 1 L. The cultures were initially stirred at 400 rpm and aerated with 1.5 vvm of compressed air which had been sterilized by passing through a sterile filter. The fermentation was carried out at a temperature of 30° C.
# The pH was maintained at a value of 7.0 by means of automatic correction with 25% NH4 OH. The oxygen saturation in the fermentation broth had at no time during the fermentation to fall below 20%; the stirring speed was used to ensure this. The glucose content of the nutrient solution, the optical density and the cysteine content were determined at two- to three-hourly intervals. The glucose content was determined enzymically using a glucose analyzer from YSI. The concentration of the glucose was adjusted to between 10 and 20 g/L by means of continuously feeding in this compound.
# The content of cysteine in the medium was determined […] from the cell-free super-natant of the sample using the method of Gaitonde, M. K. (1967), Biochem. J. 104, 627-633.
# The fermentation was terminated after 44-50 h.
molecule,measurement,setting,value
B1,Ki,"serine acetyltransferase; Table 1a, 1 mM L-serine, 0.1 mM acetyl-CoA",700 µM
same,spec. act.,"serine acetyltransferase; Table 1a, serine acetyltransferase activity",0.117 µmol/min/mg
same,Ki,"serine acetyltransferase; Table 2, alleles from chemical mutagenesis",700 µM
same,Cysteine yield,production strain JM15,3.4 g/L
